Test results taken from PMC6580467.

Target: C-type lectin-like receptor 2 (CLEC-2) on platelets (human (endogenous in platelets of healthy donors)) (UniProt Q9P126)
Chain of UniProt Q9P126 (Q9P126 whole entry): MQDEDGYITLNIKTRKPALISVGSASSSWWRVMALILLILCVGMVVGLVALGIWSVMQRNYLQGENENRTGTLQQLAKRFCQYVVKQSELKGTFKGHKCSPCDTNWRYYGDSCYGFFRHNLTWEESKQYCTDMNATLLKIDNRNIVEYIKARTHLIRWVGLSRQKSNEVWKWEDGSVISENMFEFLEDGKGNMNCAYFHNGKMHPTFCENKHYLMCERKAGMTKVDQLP

Row | Binder | inhibition by mAb SZ168 (10, 15 μg/mL) of platelet aggregation induced by NCI-H226 cells in human platelet-rich plasma; maximal inhibition ratio | inhibition by mAb SZ168 (15, 20 μg/mL) of platelet aggregation induced by C8161 cells in human platelet-rich plasma; maximal inhibition ratio at 20 μg/mL | inhibition by mAb SZ168 (20, 25 μg/mL) of platelet aggregation induced by CNE-2 cells in human platelet-rich plasma; maximal inhibition ratio at 25 μg/mL | inhibition by mAb SZ168 (10, 15 μg/mL) of platelet aggregation induced by CHO/hPDPN cells in human platelet-rich plasma; maximal inhibition ratio
1 | Podoplanin (PDPN), endogenous on human cancer cell lines (natural protein) ASTGQPEDDTETTGLEGGVAMPGAEDDVVTPGTSEDRYKSGLTTLVATSVNSVTGIRIEDLPTSESTVHAQEQSPSATASNVATSHSTEKVDGDTQTTVEKDGLSTVTLVGIIVGVLLAIGFIGAIIVVVMRKMSGRYSP | 74.2% | 73.9% | 77.1% | 
2 | Human podoplanin expressed on CHO cells (CHO/hPDPN) (natural protein) ASTGQPEDDTETTGLEGGVAMPGAEDDVVTPGTSEDRYKSGLTTLVATSVNSVTGIRIEDLPTSESTVHAQEQSPSATASNVATSHSTEKVDGDTQTTVEKDGLSTVTLVGIIVGVLLAIGFIGAIIVVVMRKMSGRYSP |  |  |  | 72.6%
